This is an account of results in patent US20110097326A1 (IRM, published 2011).

Values joined by “and” are separate entries in the source; they are usually repeats but may differ in a detail not shown here. Equal entries are not always repeated.

In test [1] the target is T1, recombinant Fc-TrkB antigen (human) (human, UniProt Q16620 32-430, limits assumed).
T1 construct: Biotinylated for the ForteBio assays; also called Fc-hTrkB; human Fc-TrkB; not shown: Fc part
The experiment in a line: BLI (ForteBio Octet), biotinylated Fc-TrkB on streptavidin sensors, IgG at 1E-8 M. The method, then: The binding kinetics of IgGs and Fab fragments were analyzed using a ForteBio Octet biosensor. Recombinant Fc-TrkB antigen was biotinylated using the EZ-link biotinylation kit (Pierce) according to the manufacturer's methods. The antigen was then coupled to streptavidin-coated sensors (ForteBio). Fab binding was monitored in real time using bio-layer interferometry analysis and software provided by the manufacturer. Affinities were calculated from the determined association and dissociation constants.
IgGs with human V-segments were also prepared from transient transfections of CHO cells. IgG preparations were purified and further characterized by kinetic comparison with the reference IgG A10F18.2. Binding kinetics for two of the IgGs with human V-segments were analyzed using a ForteBio Octet system for real-time label-free monitoring of protein-protein interactions.
(In general: BLI is a label-free optical method that tracks binding on a fibre tip over time.)

The target in test [2] is T1, recombinant Fc-TrkB antigen (human). The experiment in a line: SPR (Biacore S51), Fc-hTrkB amine-coupled to CM-5 chip, IgG in flow, global 1:1 Langmuir fit. The method, then: Binding studies on the improved antibodies were performed by immobilizing Fc-hTrkB onto a Series S CM-5 Biacore sensor chip (certified) (Biacore #BR-1005-30). Covalent binding of the Fc-fusion protein was done with the ‘Amine Coupling Kit’ (Biacore #BR-1000-50). The Fc-Fusion protein was attached to the EDC-activated dextran surface at 5 μg/ml in 10 mM sodium acetate, pH 4.5 (Biacore #BR-1003-50) at a flow rate of 10 μL/min
A range of concentrations of improved antibodies were flowed over the Fc-TrkB captured chip in PBS plus 100 mM NaCl, 0.005% P20 (Biacore #BR-1000-54). The resulting sensorgrams were analyzed using the Biacore S51 Evaluation Software. Data from all concentrations was fitted globally to a 1:1 Langmuir model.
Although this antibody is bivalent, the binding was treated as a 1:1 event.

Test [3] has as its target TrkB on rat intestinal epithelial (RIE)-TrkB cells. The experiment in a line: cell-based or functional assay.
The target in test [4] is T2, human TrkC-Fc fusion protein (human, UniProt Q16288 32-429, limits assumed).
T2 construct: not shown: Fc part
The experiment in a line: ELISA on Trk-hFc fusion proteins, goat anti-human Fab-HRP detection [panel D]. On the procedure: (§1) FIG. 9A-D illustrate ELISA assays showing specific binding of NVP-LFD253, NVP-LFD254, NVP-LFC325 and NVP-LFC327 to human TrkB-Fc fusion protein but not to human […] or TrkC-Fc fusion proteins. Purified IgG at 2 μg/ml was evaluated for specificity by examining its interaction with three different Trk family members (TrkA, TrkB and TrkC). Secondary Ab are replicates that were blocked and treated with only the goat-anti-human Fab-HRP detection Ab.
(§2) IgG with human V-segments (e.g., NVP-LFD253, NVP-LFD254, NVP-LFC325, and NVP-LFC327) bind specifically to TrkB but not to TrkA or TrkC. Purified IgG antibodies at 2 μg/ml were evaluated for specificity by examining its interaction with three different Trk family members (TrkA, TrkB and TrkC). Secondary Ab are replicates that were blocked and treated with only the goat-anti-human Fab-HRP detection Ab. As shown in FIG. 9A-D, none of LFD253, LFD254, LFC325 or LFC327 bind to either of these related Trk family receptors.
A general note: In an ELISA, binding on a coated surface is turned into a signal by an enzyme label.

Test [5] deals with T3, TrkA-Fc fusion protein (human, UniProt P04629-2 34-407, limits assumed).
T3 construct: not shown: Fc part
The test is described as above. On the procedure:
as §1, §2

B1: NVP-LFC327 (antibody, human IgG1, V domains shown)
VH: QVQLVQSGAEVKKPGASVKVSCKASGYTFTAYDMHWVRQAPGQGLEWMGWIDPNSGGTRYAQKFQGRVTMTRDTSISTAYMELSRLTSDDTAVYYCTGVTTWFAYWGQGTLVTVSS
VL: DIVMTQSPLSLPVTLGQPASISCRSSQSLVHSNGNTYLNWYQQKPGQPPRLLIYKISNRFSGVPDRFSGSGAGTDFTLKISRVEAEDVGVYYCMQGTHEPYTFGQGKLEIK
notes: IgG with human IgG1 constant region and human kappa constant region, from transiently transfected CHO cells; also called TR127 Vh & TR129 Vk
On to B1, for which, in test [1], the equilibrium dissociation constant (Kd) turned out to be 0.0197 nM, the dissociation rate constant (koff) turned out to be 7.9e-06 s⁻¹ and the on-rate constant (kon) stood at 401000 M⁻¹ s⁻¹. Also, in test [2], the dissociation constant (Kd) came out at 0.146 nM, the off-rate (koff) is 5.76e-05 s⁻¹ and the kon was 393000 M⁻¹ s⁻¹. Moreover, the “EC50, anoikis assay on RIE-TrkB cells” value in test [3] is 26.9 ng/ml and 180 pM. For the same molecule, in test [4], the binding result was “no binding (tested: 2 ug/ml)”. In addition, the binding result in test [5] is “no binding (tested: 2 ug/ml)”.

The term Kd denotes the concentration at which binding is half-saturated. The term koff denotes the rate constant with which the complex falls apart. Usually kon stands for the rate constant with which the complex forms.
